According to paper PMC11303396 (Nature Communications, 2024):

Target: the molecule itself
Test: cryo-EM structure

B1: mouse ClC-3b I607T mutant (natural protein, UniProt P51791 1-818, looked up)
chain: MESEQLFHRGYYRNSYNSITSASSDEELLDGAGAIMDFQTSEDDNLLDGDTAAGTHYTMTNGGSINSSTHLLDLLDEPIPGVGTYDDFHTIDWVREKCKDRERHRRINSKKKESAWEMTKSLYDAWSGWLVVTLTGLASGALAGLIDIAADWMTDLKEGICLSALWYNHEQCCWGSNETTFEERDKCPQWKTWAELIIGQAEGPGSYIMNYIMYIFWALSFAFLAVSLVKVFAPYACGSGIPEIKTILSGFIIRGYLGKWTLMIKTITLVLAVASGLSLGKEGPLVHVACCCGNIFSYLFPKYSTNEAKKREVLSAASAAGVSVAFGAPIGGVLFSLEEVSYYFPLKTLWRSFFAALVAAFVLRSINPFGNSRLVLFYVEYHTPWYLFELFPFILLGVFGGLWGAFFIRANIAWCRRRKSTKFGKYPVLEVIIVAAITAVIAFPNPYTRLNTSELIKELFTDCGPLESSSLCDYRNDMNASKIVDDIPDRPAGVGVYSAIWQLCLALIFKIIMTVFTFGIKVPSGLFIPSMAIGAIAGRIVGIAVEQLAYYHHDWFIFKEWCEVGADCITPGLYAMVGAAACLGGVTRMTVSLVVIVFELTGGLEYTVPLMAAVMTSKWVGDAFGREGIYEAHIRLNGYPFLDAKEEFTHTTLAADVMRPRRSDPPLAVLTQDNMTVDDIENMINETSYNGFPVIMSKESQRLVGFALRRDLTIAIESARKKQEGIVGSSRVCFAQHTPSLPAESPRPLKLRSILDMSPFTVTDHTPMEIVVDIFRKLGLRQCLVTHNGIVLGIITKKDILRHMAQTANQDPASIMFN
binding result: binds
